In patent publication US10870874B2, “Binding fusion proteins, binding fusion protein-drug conjugates, XTEN-drug conjugates and methods of making and using same” (Amunix Pharmaceuticals, Inc., priority 2010, dated 2020):

Experiments:
human IL6R = biological target: T1, human IL6R (Homo sapiens, UniProt P08887); assay: IL6R binding ELISA of aIL6R-XTEN; details: 100 ng/well human IL6R
T1 sequence (P08887 20-468): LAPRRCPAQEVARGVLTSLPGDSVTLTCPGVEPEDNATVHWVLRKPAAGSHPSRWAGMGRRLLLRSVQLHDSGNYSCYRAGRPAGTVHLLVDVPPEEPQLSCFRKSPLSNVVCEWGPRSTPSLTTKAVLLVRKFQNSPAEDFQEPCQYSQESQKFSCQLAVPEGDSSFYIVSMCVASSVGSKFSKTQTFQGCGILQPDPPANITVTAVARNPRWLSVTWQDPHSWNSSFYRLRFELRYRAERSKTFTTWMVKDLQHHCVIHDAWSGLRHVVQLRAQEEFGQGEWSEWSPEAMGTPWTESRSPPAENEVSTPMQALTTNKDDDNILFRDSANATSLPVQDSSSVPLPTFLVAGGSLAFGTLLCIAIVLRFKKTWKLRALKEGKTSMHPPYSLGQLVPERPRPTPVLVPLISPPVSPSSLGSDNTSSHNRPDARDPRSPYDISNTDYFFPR
Method: E. coli from a single colony of AC342 was grown to saturation in 2×YT media. 10 mL of this saturated overnight culture was used to inoculate a 500 ml of 2×YT media and this culture was grown to an OD600 between 0.4 and 0.5 at 37° C., transferred to 26° C. and induced with 1 mM IPTG. The culture was then grown overnight (15-17 hours) and harvested by centrifugation at 10,000 rpm in a Sorvall SLA-3000 rotor. The pellets were stored until use at −80° C. Cell paste was resuspended in 25 ml of lysis buffer (20 mM sodium acetate, 50 mM sodium chloride, pH 4.5), lysed by sonication, and clarified by spinning at 10,000 rpm at 4° C. in a Sorvall SS34 rotor. The samples were further acidified by the addition of acetic acid. […] IL6R binding was assessed in an ELISA as follows: the plates were coated with either 100 ng/well of human IL6R for 1 hour at 37° C., blocked with 3% BSA in PBS for one hour at 37° C., bound by adding the AC342 dilution series to the plate and incubating for one hour at room temperature, washed 3 times with PBST, detected with biotinylated anti-XTEN antibody for one hour at room temperature, washed three times with PBST, amplified with streptavidin-HRP for one hour at room temperature, washed three times with PBST, developed with TMB substrate and read at 405 nm using a plate reader.

human CD40 = human CD40 (Homo sapiens, UniProt P25942); assay: CD40 binding ELISA with cleared lysates of aCD40-XTEN; details: from EC50 of lysate dilution and an estimate concentration of 10 μM in the lysate
Chain of human CD40 (P25942 21-193 limits assumed): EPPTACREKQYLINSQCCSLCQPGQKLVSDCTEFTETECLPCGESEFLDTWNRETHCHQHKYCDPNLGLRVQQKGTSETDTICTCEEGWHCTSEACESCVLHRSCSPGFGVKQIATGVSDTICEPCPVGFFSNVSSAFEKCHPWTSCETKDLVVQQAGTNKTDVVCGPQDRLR
Method: Two aCD40-XTEN constructs, AC384 and AC385, were expressed by growing a culture to saturation in 2×YT and then using this culture to inoculate a 500 ml flask of 2×YT. This second flask was grown to an OD600 of between 0.6 and 1.0 at 37° C., transferred to 26° C., and induced with 1 mM IPTG. The induction was left overnight and cell paste harvested by centrifugation the flowing morning. These pellets were stored as EP220 and EP221. Small samples were taken from the pellet, lysed using bugbuster, and clarified using a microcentrifuge. These cleared lysates were the serially diluted by a factor of three in PBST, for using in a binding ELISA. The ELISA was performed as follows: The plates were coated with either 100 ng/well of human CD40-Fc fusion for 1 hour at 37° C., blocked with 3% BSA in PBS for one hour at 37° C., bound by adding the AC384 or AC385 dilution series to the plate and incubating for one hour at room temperature, washed 3 times with PBST, detected with biotinylated anti-XTEN antibody for one hour at room temperature, washed three times with PBST, amplified with streptavidin-HRP for one hour at room temperature, washed three times with PBST, developed with TMB substrate and read at 405 nm using a plate reader. The ELISA values were plotted versus dilution of lysate plotted on a log scale and an EC50 value determined, with nearly identical results (FIG. 27).

[1] = Stability of XTEN_AE864-GFP incubated in monkey plasma; format: in vitro ADME, cynomolgus monkey; details: 37° C., 7 days
Method: (§1) FIG. 16A-FIG. 16C show an SDS-PAGE gel of samples from a stability study of the fusion protein of XTEN_AE864 fused to the N-terminus of GFP.
(§2) A fusion protein containing XTEN_AE864 fused to the N-terminus of GFP was incubated in monkey plasma and rat kidney lysate for up to 7 days at 37° C. Samples were withdrawn at time 0, Day 1 and Day 7 and analyzed by SDS PAGE followed by detection using Western analysis and detection with antibodies against GFP as shown in FIG. 16A-FIG. 16C. […] The in vivo stability of the fusion protein was tested in plasma samples wherein the GFP_AE864 was immunoprecipitated and analyzed by SDS PAGE as described above.

[2] = Stability of XTEN_AE864-GFP incubated in rat kidney lysate; format: in vitro ADME; details: 37° C., over 3 days
Method: as §1
as §2, with “Samples” for “A fusion protein containing XTEN_AE864 fused to the N-terminus of GFP was incubated in monkey plasma and rat kidney lysate for up to 7 days at 37° C. Samples”

[3] = In vivo stability of GFP-XTEN in plasma samples after injection; parameters: species or system cynomolgus monkeys; details: samples up to 7 days after injection
Method: as §1, §2

B1: AC342: aIL6R-XTEN binding fusion protein construct (protein)
chain: YQQKPGKAPKLLIYYTSRLHSGVPSRFSGSGSGTDFTFTISSLQPEDIATYYCQQGNTLPYTFGQGTKVEIKTGSGEGSEGEGGGEGSEGEGSGEGGEGEGSGSQVQLQESGPGLVRPSQTLSLTCTVSGYSITSDHAWSWVRQPPGRGLEWIGYISYSGITTYNPSLKSRVTMLRDTSKNQFSLRLSSVTAADTAVYYCARSLARTTAMDYWGQGSLVTVSSGSPGSPAGSPTSTEEGTSESATPESGPGTSTEPSEGSAPGSPAGSPTSTEEGTSTEPSEGSAPGTSTEPSEGSAPGTSESATPESGPGSEPATSGSETPGSEPATSGSETPGSPAGSPT
EC50 (human IL6R): 5 nM

B2: AC385: anti-CD40-XTEN_AE864 scFv binding fusion protein (protein)
chain: QQKPGQAPRLLIYYASHSISGIPARFSGSGSGTDFTLTISSLEPEDFAVYYCQHGHSYPWTFGGGTKVEIKTGSGEGSEGEGGGEGSEGEGSGEGGEGEGSGTQVQLVQSGSELKKPGASVKVSCKASGYAFTTTGMQWVRQAPGQGLEWMGWINTHSGVPKYVEDFKGRFVFSLDTSVSTAYLQISSLKAEDTAVYYCARSGNGNYDLAYFKYWGQGTLVTVSSGGSPAGSPTSTEEGTSESATPESGPGTSTEPSEGSAPGSPAGSPTSTEEGTSTEPSEGSAPGTSTEPSEGSAPGTSESATPESGPGSEPATSGSETPGSEPATSGSETPGSPAGSPT
Kd (human CD40): ~50 nM

B3: AC384: anti-CD40-XTEN_AE864 scFv binding fusion protein (protein)
chain: QQKPGQAPRLLIYYASHSISGIPARFSGSGSGTDFTLTISSLEPEDFAVYYCQHGHSYPWTFGGGTKVEIKTGSGEGSEGEGGGEGSEGEGSGEGGEGEGSGTQVQLVQSGSELKKPGASVKVSCKASGYAFTTTGMQWVRQAPGQGLEWMGWINTHSGVPKYVEDFKGRFVFSLDTSVSTAYLQISSLKAEDTAVYYCARSGNGNYDLAYFKYWGQGTLVTVSSGGSPAGSPTSTEEGTSESATPESGPGTSTEPSEGSAPGSPAGSPTSTEEGTSTEPSEGSAPGTSTEPSEGSAPGTSESATPESGPGSEPATSGSETPGSEPATSGSETPGSPAGSP
Kd (human CD40): ~50 nM

B4: XTEN_AE864: fusion protein containing XTEN_AE864 fused to the N-terminus of GFP (protein)
chain: MAEPAGSPTSTEEGTPGSGTASSSPGSSTPSGATGSPGASPGTSSTGSPGGASASCAPSTGGGSPAGSPTSTEEGTSESATPESGPGTSTEPSEGSAPGSPAGSPTSTEEGTSTEPSEGSAPGTSTEPSEGSAPGTSESATPESGPGSEPATSGSETPGSEPATSGSETPGSPAGSPTSTEEGTSESATPESGPGTSTEPSEGSAPGTSTEPSEGSAPGSPAGSPTSTEEGTSTEPSEGSAPGTSTEPSEGSAPGTSESATPESGPGTSTEPSEGSAPGTSESATPESGPGSEPATSGSETPGTSTEPSEGSAPGTSTEPSEGSAPGTSESATPESGPGTSESATPESGPGSPAGSPTSTEEGTSESATPESGPGSEPATSGSETPGTSESATPESGPGTSTEPSEGSAPGTSTEPSEGSAPGTSTEPSEGSAPGTSTEPSEGSAPGTSTEPSEGSAPGTSTEPSEGSAPGSPAGSPTSTEEGTSTEPSEGSAPGTSESATPESGPGSEPATSGSETPGTSESATPESGPGSEPATSGSETPGTSESATPESGPGTSTEPSEGSAPGTSESATPESGPGSPAGSPTSTEEGSPAGSPTSTEEGSPAGSPTSTEEGTSESATPESGPGTSTEPSEGSAPGGASASCAPSTGGGSEPATSGSETPGTSESATPESGPGSEPATSGSETPGSPAGSPTSTEEGTSTEPSEGSAPGSEPATSGSETPGSEPATSGSETPGSEPATSGSETPGTSTEPSEGSAPGTSESATPESGPGSEPATSGSETPGTSTEPSEGSAPG
degradation in plasma [1]: negligible signs of degradation
degradation in rat kidney lysate [2]: rapidly degraded
degradation in vivo [3]: very few signs of degradation
